Measurements from patent US20260374834 (published 2026).

T1: hIL-18Ra ECD-Fc (human, UniProt Q13478)
T1 chain: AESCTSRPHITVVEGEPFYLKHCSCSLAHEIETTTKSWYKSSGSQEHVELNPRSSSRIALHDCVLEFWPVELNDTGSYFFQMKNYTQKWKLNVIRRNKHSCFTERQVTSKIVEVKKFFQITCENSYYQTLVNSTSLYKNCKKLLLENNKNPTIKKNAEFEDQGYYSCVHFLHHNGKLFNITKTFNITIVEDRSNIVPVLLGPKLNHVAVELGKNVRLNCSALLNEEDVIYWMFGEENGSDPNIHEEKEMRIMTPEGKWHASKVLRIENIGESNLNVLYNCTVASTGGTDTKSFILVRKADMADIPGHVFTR


Target: T1, hIL-18Ra ECD-Fc
Test: BLI

| Binder | Kd [nM] |
| --- | --- |
| M6 (designed binder) YFPKLRSKLSVIRNLNDQVLFIDQGNRPLFEDMTDSDCRDNAPRTIFIISMYKWSTPRGMAVTISVKCEKISTLSCENKIISFKEMNPPDVIKDTKSDIIFFQTSVPGHDNKMQFESSSYEGYFLACEKERDLFKLILKKEDELGDRSIMFTVQNED | > 1000 |
| WM8 (designed binder) YFPKLRSKLSVIRNLNDQVLFIDQGNRPLFEDMTDSDCRDNAPRTIFIISMYKDSQPRGMAVTISVKCEKISTLSCENKIISFKEMNPPDSIKDTKSDIIFFQRSVPGHDNKMQFESSSYEGYFLACEKERDLFKLILKKEDELGDRSIMFTVQNED | > 1000 |

Second part, the binder after the results:

| Kd [nM] | Binder |
| --- | --- |
| > 1000 | WM2 (designed binder) YFPKLRSKLSVIRNLNDQVLFIDQGNRPLFEDMTDSDCRDNAPRTIFIISMYKDSQPRGMAVTISVKCEKISTLSCENKIISFKEMNPPDNIKDTESDIIFFQRSVPGHDNKMQFESSSYEGYFLACEKERDLFKLILKKEDELGDRSIMFTVQNED |
| > 1000 | M36 (designed binder) YFPKLSSKLSVIRNLNDQVLFIDQGNRPLFEDMTDSDCRDNAPRTIFIISMYKASDQRGMAVTISVKCEKISTLSCENKIISFKEMNPPDGIKDTKSDIIFFQRSVPGHDNKMQFESSSYEGYFLACEKERDLFKLILKKEDELGDRSIMFTVQNED |
